Measurements reported in patent publication US20230190951A1, “CONJUGATES OF ANTIBODIES AN IMMUNE CELL ENGAGERS” (SYNAFFIX B.V., priority 2020, published 2023).

Columns and labels:
[1] = cited from earlier work
[2] = single-arm trial, all patients treated; cited from earlier work
[3] = molecular target: FcRn receptor (Homo sapiens, UniProt P55899); assay: FcRn binding analysis by Biacore (steady state); conditions: pH 6.0, PBS with 0.05% tween-20
Experimental: Binding to the FcRn receptor was determined at pH 7.4 and pH 6.0 using a Biacore T200 (serial no. 1909913) using single-cycle kinetics and running Biacore T200 Evaluation Software V 2.0.1. A CM5 chip was coupled with FcRn in sodium acetate pH 5.5 using standard amine chemistry. Serial dilution of bispecifics and controls were measured in PBS pH 7.4 with 0.05% tween-20 (9 points; 2-fold dilution series; 8000 nM Top conc.) and in PBS pH 6.0 with 0.05% tween-20 (3 points; 2-fold dilution series; 4000 nM Top conc.). A flow rate of 30 µl/min was used and an association time of 40 seconds and dissociation time of 75 seconds. Steady state analysis was used to analyze samples.

[4] = system: MOLT-4 cells; assay: CD3 binding analysis by FACS on CD3 negative MOLT-4 cells; conditions: MOLT-4 (CD3 negative)
Experimental: (§1) Both cell lines were cultured in RPMI 1640 supplemented with 1% pen/strep and 10% fetal bovine serum at a concentration of 2 x 10^5 to 1 x 10^6 cells/ml. Cells were washed in fresh medium before the experiment and 100,000 cells per well were seeded in a 96-wells plate (duplicate wells). The dilution series of 6 antibodies were made in phosphate-buffered saline (PBS). The antibodies were diluted 10 times in the cell suspension and incubated at 4° C. in the dark for 30 minutes. After incubation, the cells were washed twice in cold PBS / 0.5% BSA, and incubated with anti-HIS-PE (only for 200) or anti-IgG1-PE (for all other compounds) at 4° C., in the dark for 30 minutes. After the second incubation step, the cells were washed twice. 7AAD was added as a live-dead staining. Detection of the fluorescence in the Yellow-B channel (anti-IgG1-PE and anti-HIS-PE) and the Red-B channel (7AAD) was done with the Guava 5HT flow cytometer. Median fluorescence intensity in the Yellow-B channel (anti-IgG1-PE and anti-HIS-PE) in life cells was determined with Kaluza software.

[5] = molecular target: T1, CD3 (Homo sapiens, UniProt P07766); assay: CD3 binding analysis by FACS on CD3-positive Jurkat E6.1 cells; conditions: for median fluorescence intensity: Jurkat E6.1 (CD3-positive), median of duplicate
T1 construct: Jurkat E6.1 cells, which express CD3 on the cell surface; endogenous in cells; host or cells: Jurkat E6.1
T1 sequence (P07766 23-207): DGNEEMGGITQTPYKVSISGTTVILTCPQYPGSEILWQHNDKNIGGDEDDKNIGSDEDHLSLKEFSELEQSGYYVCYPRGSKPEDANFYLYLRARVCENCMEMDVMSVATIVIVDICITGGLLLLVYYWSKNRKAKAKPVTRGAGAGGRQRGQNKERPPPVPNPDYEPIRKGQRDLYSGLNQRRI
T1 sequence (P04234 22-171 partner): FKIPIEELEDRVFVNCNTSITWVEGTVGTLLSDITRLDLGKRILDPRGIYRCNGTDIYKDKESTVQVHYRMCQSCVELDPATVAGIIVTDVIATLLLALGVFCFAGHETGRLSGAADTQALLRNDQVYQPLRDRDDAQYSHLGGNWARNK
T1 sequence (P09693 23-182 partner): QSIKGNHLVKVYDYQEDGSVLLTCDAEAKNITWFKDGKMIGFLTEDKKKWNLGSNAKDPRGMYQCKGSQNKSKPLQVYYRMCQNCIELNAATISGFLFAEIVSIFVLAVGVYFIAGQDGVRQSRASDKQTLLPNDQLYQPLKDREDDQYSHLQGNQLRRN
T1 sequence (P20963 22-164 partner): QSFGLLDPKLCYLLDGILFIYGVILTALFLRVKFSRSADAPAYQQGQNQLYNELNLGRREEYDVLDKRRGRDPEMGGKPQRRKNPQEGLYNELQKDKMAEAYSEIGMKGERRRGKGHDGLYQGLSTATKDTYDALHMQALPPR
Experimental: as §1

Chain of FcRn receptor (P55899 24-297 limits assumed): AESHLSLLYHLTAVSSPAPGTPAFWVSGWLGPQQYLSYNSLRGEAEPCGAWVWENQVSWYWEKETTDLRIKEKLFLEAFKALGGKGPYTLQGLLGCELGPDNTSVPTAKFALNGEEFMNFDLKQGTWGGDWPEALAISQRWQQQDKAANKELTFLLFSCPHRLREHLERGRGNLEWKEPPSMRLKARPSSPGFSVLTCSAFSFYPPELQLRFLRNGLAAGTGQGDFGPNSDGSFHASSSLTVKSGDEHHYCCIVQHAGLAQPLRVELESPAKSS
Chain of FcRn receptor (P61769 21-119 partner): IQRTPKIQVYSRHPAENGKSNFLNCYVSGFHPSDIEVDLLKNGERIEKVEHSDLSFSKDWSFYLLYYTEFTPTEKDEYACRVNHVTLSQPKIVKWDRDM

In the case of blinatumomab, the serum half-life [1] is listed as 2.11 h, the complete remission rate [2] is listed as 32% and the “minimal residual disease (MRD) response” value [2] is listed as 31%.

For rituximab, the “RMAX (RU)” value [3] was 96.4 RU, the median fluorescence intensity ([4]; 1 nM) was 78.96 and the median fluorescence intensity ([4]; 10 nM) was 75.92. It also gave a median fluorescence intensity ([4]; 100 nM) of 68.42, a median fluorescence intensity ([4]; 1000 nM) of 67.39 and a median fluorescence intensity ([5]; 0.32 nM) of 58.28. For the same substance, the median fluorescence intensity ([5]; 1 nM) was 56.55, the median fluorescence intensity ([5]; 3.16 nM) was 55.37 and the median fluorescence intensity ([5]; 10 nM) was 60.83. For the same substance, the median fluorescence intensity ([5]; 31.6 nM) was 58.71, the median fluorescence intensity ([5]; 100 nM) was 55.49 and the median fluorescence intensity ([5]; 316 nM) was 54.99. The median fluorescence intensity ([5]; 1000 nM) was 66.36 and the “binding to the CD3 positive Jurkat E6.1 cell line” value ([5]; Jurkat E6.1, result in words) was “not”.
